B1: purified recombinant human caspase-3 (protein)
chain: SGISLDNSYKMDYPEMGLCIIINNKNFHKSTGMTSRSGTDVDAANLRETFRNLKYEVRNKNDLTREEIVELMRDVSKEDHSKRSSFVCVLLSHGEEGIIFGTNGPVDLKKITNFFRGDRCRSLTGKPKLFIIQACRGTELDCGIETDSGVDDDMACHKIPVEADFLYAYSTAPGYYSWRNSKDGSWFIQSLCAMLKQYADKLEFMHILTRVNRKVATEFESFSFDATFHAKKQIPCIVSMLTKELYFYH

What was measured:
[1] = target: full length αII-spectrin, rat (UniProt P16086)
[2] = target: full length αII-spectrin, rat, P16086

Molecule | αII-spectrin fragmentation patterns (Western blot after in vitro digestion of rat brain cortex lysate) [1] | αII-spectrin fragmentation patterns (Western blot after in vitro digestion of rat brain cortex lysate) [2]
purified porcine calpain-2 | calpain-produced SBDP150 | –
B1 | – | Caspase-3-produced SBP150i

From patent publication US20070003982
